Experimental data published in US20180148492A1 (CHILDREN S HOSPITAL MEDICAL CENTER, published 2018).

T1: integrin α4 overexpressed in HEK 293T cells (UniProt P13612 34-1032, limits assumed)
T1 construct: Tested in cell lysates; also called α4 integrin; pITGA4
T1 sequence (looked up): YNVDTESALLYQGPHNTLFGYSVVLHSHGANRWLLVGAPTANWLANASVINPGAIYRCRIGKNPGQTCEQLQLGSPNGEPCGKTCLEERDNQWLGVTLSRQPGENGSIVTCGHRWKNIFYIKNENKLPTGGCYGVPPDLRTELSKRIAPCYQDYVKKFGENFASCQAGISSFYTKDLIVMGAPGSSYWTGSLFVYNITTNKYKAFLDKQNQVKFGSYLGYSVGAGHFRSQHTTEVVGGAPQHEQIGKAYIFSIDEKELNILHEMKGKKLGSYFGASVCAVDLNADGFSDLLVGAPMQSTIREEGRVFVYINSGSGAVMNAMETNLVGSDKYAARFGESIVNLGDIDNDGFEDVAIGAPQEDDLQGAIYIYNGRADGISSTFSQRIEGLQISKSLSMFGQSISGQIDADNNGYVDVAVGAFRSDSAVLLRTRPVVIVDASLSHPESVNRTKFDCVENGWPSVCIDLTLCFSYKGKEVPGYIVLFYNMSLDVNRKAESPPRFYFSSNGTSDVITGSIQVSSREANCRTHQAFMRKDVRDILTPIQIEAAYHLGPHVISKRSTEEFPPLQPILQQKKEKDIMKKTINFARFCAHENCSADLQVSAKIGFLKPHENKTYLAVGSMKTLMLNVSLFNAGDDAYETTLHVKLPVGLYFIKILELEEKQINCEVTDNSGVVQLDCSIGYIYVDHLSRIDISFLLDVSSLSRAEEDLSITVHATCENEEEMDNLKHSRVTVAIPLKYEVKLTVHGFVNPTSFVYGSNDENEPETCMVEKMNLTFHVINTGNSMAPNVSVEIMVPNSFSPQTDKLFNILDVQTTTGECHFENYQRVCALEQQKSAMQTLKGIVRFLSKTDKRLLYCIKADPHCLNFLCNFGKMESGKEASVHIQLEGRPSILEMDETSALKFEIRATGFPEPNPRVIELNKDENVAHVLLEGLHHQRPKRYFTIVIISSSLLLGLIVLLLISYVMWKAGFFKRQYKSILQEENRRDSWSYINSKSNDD

B1: CDH1 (E-cadherin) overexpressed in HEK 293T cells (receptor, UniProt P12830 155-882, looked up)
chain: DWVIPPISCPENEKGPFPKNLVQIKSNKDKEGKVFYSITGQGADTPPVGVFIIERETGWLKVTEPLDRERIATYTLFSHAVSSNGNAVEDPMEILITVTDQNDNKPEFTQEVFKGSVMEGALPGTSVMEVTATDADDDVNTYNAAIAYTILSQDPELPDKNMFTINRNTGVISVVTTGLDRESFPTYTLVVQAADLQGEGLSTTATAVITVTDTNDNPPIFNPTTYKGQVPENEANVVITTLKVTDADAPNTPAWEAVYTILNDDGGQFVVTTNPVNNDGILKTAKGLDFEAKQQYILHVAVTNVVPFEVSLTTSTATVTVDVLDVNEAPIFVPPEKRVEVSEDFGVGQEITSYTAQEPDTFMEQKITYRIWRDTANWLEINPDTGAISTRAELDREDFEHVKNSTYTALIIATDNGSPVATGTGTLLLILSDVNDNAPIPEPRTIFFCERNPKPQVINIIDADLPPNTSPFTAELTHGASANWTIQYNDPTQESIILKPKMALEVGDYKINLKLMDNQNKDQVTTLEVSVCDCEGAAGVCRKAQPVEAGLQIPAILGILGGILALLILILLLLLFLRRRAVVKEPLLPPEDDTRDNVYYYDEEGGGEEDQDFDLSQLHRGLDARPEVTRNDVAPTLMSVPRYLPRPANPDEIGNFIDENLKAADTDPTAPPYDSLLVFDYEGSGSEAASLSSLNSSESDKDQDYDYLNEWGNRFKKLADMYGGGEDD
notes: Tested in cell lysates; also called pCDH1
B2: human CDH26 (cadherin 26) expressed on transduced cells (receptor)
chain: DSVQQETDDLTKQTKEKIYQPLRRSKRRWVITTLELEEEDPGPFPKLIGELFNNMSYNMSLMYLISGPGVDEYPEIGLFSLEDHENGRIYVHRPVDREMTPSFTVYFDVVERSTGKIVDTSLIFNIRISDVNDHAPQFPEKEFNITVQENQSAGQPIFQMLAVDLDEENTPNSQVLYFLISQTPLLKESGFRVDRLSGEIRLSGCLDYETAPQFTLLIRARDCGEPSLSSTTTVHVDVQEGNNHRPAFTQENYKVQIPEGRASQGVLRLLVQDRDSPFTSAWRAKFNILHGNEEGHFDISTDPETNEGILNVIKPLDYETRPAQSLIIVVENEERLVFCERGKLQPPRKAAASATVSVQVTDANDPPAFHPQSFIVNKEEGARPGTLLGTFNAMDPDSQIRYELVHDPANWVSVDKNSGVVITVEPIDRESPHVNNSFYVIIIHAVDDGFPPQTATGTLMLFLSDINDNVPTLRPRSRYMEVCESAVHEPLHIEAEDPDLEPFSDPFTFELDNTWGNAEDTWKLGRNWGQSVELLTLRSLPRGNYLVPLFIGDKQGLSQKQTVHVRICPCASGLTCVELADAEVGLHVGALFPVCAAFVALAVALLFLLRCYFVLEPKRHGCSVSNDEGHQTLVMYNAESKGTSAQTWSDVEGQRPALLICTAAAGPTQGVKDLEEVPPSAASQSAQARCALGSWGYGKPFEPRSVKNIHSTPAYPDATMHRQLLAPVEGRMAETLNQKLHVANVLEDDPGYLPHVYSEEGECGGAPSLSSLASLEQELQPDLLDSLGSKATPFEEIYSESGVPS

Legend:
[1] = target: T1, integrin α4 overexpressed in HEK 293T …; test: co-immunoprecipitation from HEK 293T cells overexpressing the proteins
Method: Cells (approximately 2×10⁶) were washed one time with PBS and incubated in IP buffer (50 mM Tris-HCl [pH 7.4], 150 mM NaCl, 2 mM EDTA, 1 mM dithiothreitol, 1% Nonidet P-40 [NP-40]; or 10 mM imidazole, 100 mM NaCl, 1 mM MgCl₂, 5 mM EDTA, 1% Triton X-100, pH 7.4) containing 1× cOmplete protease inhibitor cocktail (Roche) for 10 min on ice. Cells were scraped from the plate and rotated at 4° C. for 10 min. Lysates were cleared by centrifugation at 20,000×g at 4° C. for 10 min. An equal amount of protein was added to total 500 microliters of IP buffer plus protease inhibitors (Roche). Antibodies (2 micrograms α-HA (Covance), α-myc (Covance), α-p120 (BD Transduction Laboratories), α-ITGA4 (Cell Signaling Technology, Inc.), mouse IgG1 control (AbD Serotec), or normal rabbit IgG control (R & D Systems)) were added and rotated overnight at 4° C. Subsequently, 20 microliters of protein A/G agarose beads (Santa Cruz Biotechnology, Inc.) were added per sample. After 2 h of rotation (4° C.), beads were washed 5 times in IP buffer containing protease inhibitors. 2× Laemmli buffer was added to the immunoprecipitates or total cell lysates saved prior to IP (input).

[2] = target: the molecule itself; test: cell-based or functional assay

Binder	binding result [1]	phosphorylation of ERK upon calcium restoration [2] [fold]
B1	no binding	
B2		11.6
